In publication PMC9482650, “Quantitative fragmentomics allow affinity mapping of interactomes” (Nature Communications, 2022):

B1: MAP2K2, P36507 (peptide)
chain: QPGTPTRTAV
B2: MAS1, P04201 (peptide)
chain: CNTVTVETVV
B3: MAP4, P27816 (peptide)
chain: LDSQIQETSI

Experiments:
Test in all cases: holdup assay
Set-up in all cases: key: below the threshold = too weak to quantify, mostly under pKd 3.1 to 4
Conditions in all cases: plain residues with an end cap or a label only (N-terminal biotin on a linker: ttds)
MPP6, Q9NZW5 = molecular target: T1, MPP6, Q9NZW5
T1 sequence (Q9NZW5 125-219, limits assumed, looked up): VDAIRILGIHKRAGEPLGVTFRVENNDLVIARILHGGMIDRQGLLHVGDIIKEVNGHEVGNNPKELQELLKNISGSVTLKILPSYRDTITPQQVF

GRIP1_4, Q9Y3R0 = molecular target: T2, GRIP1_4, Q9Y3R0
T2 sequence (Q9Y3R0 467-571, limits assumed, looked up): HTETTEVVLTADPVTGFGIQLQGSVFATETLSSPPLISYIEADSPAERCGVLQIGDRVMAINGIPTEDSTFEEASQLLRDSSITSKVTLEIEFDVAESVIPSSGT

Inadl_4, Q8NI35 = molecular target: Inadl_4, Q8NI35
Inadl_4, Q8NI35, sequence (Q8NI35 547-651): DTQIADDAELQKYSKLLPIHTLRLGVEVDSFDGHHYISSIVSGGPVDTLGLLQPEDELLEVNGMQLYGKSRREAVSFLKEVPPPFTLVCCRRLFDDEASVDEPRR

APBA1_2, Q02410 = molecular target: T3, APBA1_2, Q02410
T3 sequence (Q02410 742-832, limits assumed, looked up): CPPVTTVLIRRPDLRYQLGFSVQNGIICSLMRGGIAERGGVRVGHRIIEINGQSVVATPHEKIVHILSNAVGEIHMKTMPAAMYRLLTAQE

FRMPD2_2, Q68DX3 = molecular target: FRMPD2_2, Q68DX3
FRMPD2_2, Q68DX3, sequence (Q68DX3 944-1038): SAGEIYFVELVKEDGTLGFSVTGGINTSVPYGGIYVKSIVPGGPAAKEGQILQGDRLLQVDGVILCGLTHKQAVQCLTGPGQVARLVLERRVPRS

MPDZ_12, O75970 = molecular target: T4, MPDZ_12, O75970
T4 sequence (O75970 1857-1958, limits assumed, looked up): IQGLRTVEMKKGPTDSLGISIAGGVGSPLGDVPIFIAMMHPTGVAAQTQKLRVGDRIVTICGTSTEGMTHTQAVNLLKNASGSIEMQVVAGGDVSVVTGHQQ

Inadl_6, Q8NI35 = molecular target: Inadl_6, Q8NI35
Inadl_6, Q8NI35, sequence (Q8NI35 1058-1167): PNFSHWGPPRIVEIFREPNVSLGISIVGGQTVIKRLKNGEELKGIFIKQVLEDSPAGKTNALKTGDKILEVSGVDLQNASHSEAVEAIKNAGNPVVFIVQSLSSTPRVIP

GRIP1_3, Q9Y3R0 = molecular target: T5, GRIP1_3, Q9Y3R0
T5 sequence (Q9Y3R0 247-346, limits assumed, looked up): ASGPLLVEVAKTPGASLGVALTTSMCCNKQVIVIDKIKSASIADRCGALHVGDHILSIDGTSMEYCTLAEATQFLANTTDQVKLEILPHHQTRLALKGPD

CASK, O14936 = molecular target: CASK, O14936
CASK, O14936, sequence (O14936 487-570): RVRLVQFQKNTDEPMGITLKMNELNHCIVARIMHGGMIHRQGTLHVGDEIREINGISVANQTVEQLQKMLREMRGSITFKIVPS

DFNB31_1, Q9P202 = molecular target: T6, DFNB31_1, Q9P202
T6 sequence (Q9P202 135-233, limits assumed, looked up): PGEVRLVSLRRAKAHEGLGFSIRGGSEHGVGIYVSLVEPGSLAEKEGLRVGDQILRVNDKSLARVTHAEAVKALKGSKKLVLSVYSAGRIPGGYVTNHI

LAP2, Q96RT1 = molecular target: LAP2, Q96RT1
LAP2, Q96RT1, sequence (Q96RT1 other isoform, or with tags, fused parts or gaps): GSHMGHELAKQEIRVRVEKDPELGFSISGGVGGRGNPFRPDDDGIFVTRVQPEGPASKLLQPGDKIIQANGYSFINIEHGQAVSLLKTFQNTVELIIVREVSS

MAGI2_4, Q86UL8 = molecular target: MAGI2_4, Q86UL8
MAGI2_4, Q86UL8, sequence (Q86UL8 772-865): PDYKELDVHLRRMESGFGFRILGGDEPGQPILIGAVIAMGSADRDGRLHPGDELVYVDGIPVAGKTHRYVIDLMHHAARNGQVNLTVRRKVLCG

PCLO, Q9Y6V0 = molecular target: T7, PCLO, Q9Y6V0
T7 sequence (Q9Y6V0 4491-4600, limits assumed, looked up): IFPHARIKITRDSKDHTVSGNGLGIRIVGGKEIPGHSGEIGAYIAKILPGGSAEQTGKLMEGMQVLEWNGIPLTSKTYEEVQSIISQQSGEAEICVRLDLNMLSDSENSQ

PARD3B_1, Q8TEW8 = molecular target: T8, PARD3B_1, Q8TEW8
T8 sequence (Q8TEW8 196-299, limits assumed, looked up): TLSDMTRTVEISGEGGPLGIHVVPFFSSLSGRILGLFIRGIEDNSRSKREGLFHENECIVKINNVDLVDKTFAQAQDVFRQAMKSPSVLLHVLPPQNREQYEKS

FRMPD2_3, Q68DX3 = molecular target: FRMPD2_3, Q68DX3
FRMPD2_3, Q68DX3, sequence (Q68DX3 1073-1166): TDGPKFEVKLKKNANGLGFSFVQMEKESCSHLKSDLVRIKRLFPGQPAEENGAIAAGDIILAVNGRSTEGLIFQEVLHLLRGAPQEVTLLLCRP

TJP1_2, Q07157 = molecular target: TJP1_2, Q07157
TJP1_2, Q07157, sequence (Q07157 181-274): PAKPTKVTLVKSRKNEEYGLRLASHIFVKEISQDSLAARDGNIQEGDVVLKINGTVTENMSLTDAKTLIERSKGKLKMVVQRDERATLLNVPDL

APBA3_1, O96018 = molecular target: T9, APBA3_1, O96018
T9 sequence (O96018 389-490, limits assumed, looked up): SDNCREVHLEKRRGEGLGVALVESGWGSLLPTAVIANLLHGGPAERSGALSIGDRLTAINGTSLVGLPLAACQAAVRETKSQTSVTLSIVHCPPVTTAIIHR

PTPN13_1, Q12923 = molecular target: T10, PTPN13_1, Q12923
T10 sequence (Q12923 1088-1188, limits assumed, looked up): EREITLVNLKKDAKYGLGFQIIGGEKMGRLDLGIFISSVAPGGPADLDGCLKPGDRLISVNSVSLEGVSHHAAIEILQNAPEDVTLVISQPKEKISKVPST

PDZD7_3, Q9H5P4 = molecular target: T11, PDZD7_3, Q9H5P4
T11 sequence (Q9H5P4 857-944, limits assumed, looked up): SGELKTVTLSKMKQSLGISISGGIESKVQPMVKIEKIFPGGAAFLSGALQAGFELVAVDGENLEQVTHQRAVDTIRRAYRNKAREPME

DLG1_2, Q12959 = molecular target: DLG1_2, Q12959
DLG1_2, Q12959, sequence (Q12959 314-412): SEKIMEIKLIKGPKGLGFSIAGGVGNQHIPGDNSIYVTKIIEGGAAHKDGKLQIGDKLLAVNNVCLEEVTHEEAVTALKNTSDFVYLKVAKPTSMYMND

NHERF2_2, Q15599 = molecular target: NHERF2_2, Q15599
NHERF2_2, Q15599, sequence (Q15599 142-238): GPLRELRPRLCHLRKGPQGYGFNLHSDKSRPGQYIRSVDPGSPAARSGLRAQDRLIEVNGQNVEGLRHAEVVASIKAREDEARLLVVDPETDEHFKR

GIPC2, Q8TF65 = molecular target: GIPC2, Q8TF65
GIPC2, Q8TF65, sequence (Q8TF65 112-203): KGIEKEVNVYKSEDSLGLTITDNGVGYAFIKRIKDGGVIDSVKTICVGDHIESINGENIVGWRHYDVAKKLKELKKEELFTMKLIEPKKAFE

SHANK1, Q9Y566 = molecular target: T12, SHANK1, Q9Y566
T12 sequence (Q9Y566 658-767, limits assumed, looked up): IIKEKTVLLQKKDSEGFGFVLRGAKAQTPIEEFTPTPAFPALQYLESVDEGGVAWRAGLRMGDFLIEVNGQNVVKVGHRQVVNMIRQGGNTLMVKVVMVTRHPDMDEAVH

DLG3_2, Q92796 = molecular target: T13, DLG3_2, Q92796
T13 sequence (Q92796 221-321, limits assumed, looked up): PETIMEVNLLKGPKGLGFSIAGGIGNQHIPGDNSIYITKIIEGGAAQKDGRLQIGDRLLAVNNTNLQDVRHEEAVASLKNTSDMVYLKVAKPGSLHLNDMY

Row | Binder | pKd (MPP6, Q9NZW5) | pKd (GRIP1_4, Q9Y3R0) | pKd (Inadl_4, Q8NI35) | pKd (APBA1_2, Q02410) | pKd (FRMPD2_2, Q68DX3) | pKd (MPDZ_12, O75970) | pKd (Inadl_6, Q8NI35) | pKd (GRIP1_3, Q9Y3R0) | pKd (CASK, O14936) | pKd (DFNB31_1, Q9P202) | pKd (LAP2, Q96RT1) | pKd (MAGI2_4, Q86UL8) | pKd (PCLO, Q9Y6V0) | pKd (PARD3B_1, Q8TEW8) | pKd (FRMPD2_3, Q68DX3) | pKd (TJP1_2, Q07157) | pKd (APBA3_1, O96018) | pKd (PTPN13_1, Q12923) | pKd (PDZD7_3, Q9H5P4) | pKd (DLG1_2, Q12959) | further results
1 | B1 | 3.52 | below the threshold | below the threshold | 3.62 | below the threshold | below the threshold | below the threshold | below the threshold | below the threshold | below the threshold | below the threshold | 3.74 | below the threshold | below the threshold | below the threshold | below the threshold | below the threshold | 3.66 | below the threshold | 3.99 | pKd (NHERF2_2, Q15599): below the threshold; pKd (GIPC2, Q8TF65): below the threshold; pKd (SHANK1, Q9Y566): 4.17; pKd (DLG3_2, Q92796): 3.93
2 | B2 | 3.54 | below the threshold | below the threshold | below the threshold | below the threshold | below the threshold | below the threshold | below the threshold | below the threshold | below the threshold | 3.48 | 3.49 | below the threshold | below the threshold | 3.57 | below the threshold | below the threshold | 3.57 | 4.27 | 4.29 | pKd (NHERF2_2, Q15599): below the threshold; pKd (GIPC2, Q8TF65): below the threshold; pKd (SHANK1, Q9Y566): below the threshold; pKd (DLG3_2, Q92796): 4.53
3 | B3 | below the threshold | below the threshold | below the threshold | below the threshold | 3.8 | below the threshold | 4.13 | below the threshold | below the threshold | 5.03 | 3.86 | below the threshold | below the threshold | below the threshold | below the threshold | below the threshold | below the threshold | below the threshold | 5.63 | 4.37 | pKd (NHERF2_2, Q15599): 4.48; pKd (GIPC2, Q8TF65): below the threshold; pKd (SHANK1, Q9Y566): 4.42; pKd (DLG3_2, Q92796): 3.93
